In patent US20180250358A1, “GHRH AGONISTS FOR THE TREATMENT OF ISCHEMIC DISORDERS” (published 2018):
Non-standard residues stand in square brackets, D forms with d. No end group written: not given here. *: point of attachment. Phe(F5) = N[C@@H](Cc1c(F)c(F)c(F)c(F)c1F)C(=O)O; Desaminotyrosyl = O=C(CCc1ccc(O)cc1)*; NMeY = CN[C@@H](Cc1ccc(O)cc1)C(=O)O; Agmatine = N=C(N)NCCCCN*; NMeA = CN[C@@H](C)C(=O)O; Nle = CCCC[C@H](N)C(=O)O; Orn = NCCC[C@H](N)C(=O)O; Abu = CC[C@H](N)C(=O)O

T1: GHRH receptor of human pituitary membranes (human, UniProt Q02643)
T1 sequence: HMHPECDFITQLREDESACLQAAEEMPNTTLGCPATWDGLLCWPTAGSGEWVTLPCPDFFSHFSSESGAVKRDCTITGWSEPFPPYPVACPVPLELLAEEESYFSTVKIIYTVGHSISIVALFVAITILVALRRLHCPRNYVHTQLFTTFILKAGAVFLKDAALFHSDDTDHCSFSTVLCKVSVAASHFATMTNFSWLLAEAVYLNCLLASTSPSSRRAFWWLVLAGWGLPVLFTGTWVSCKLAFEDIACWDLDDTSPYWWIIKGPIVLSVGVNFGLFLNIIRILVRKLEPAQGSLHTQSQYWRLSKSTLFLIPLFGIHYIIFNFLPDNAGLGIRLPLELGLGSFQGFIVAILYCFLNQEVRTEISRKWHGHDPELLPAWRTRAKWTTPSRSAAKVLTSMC

B1: P-20359 [N-Me-Tyr^1, D-Ala^2, Fpa5^6, Orn^12, Abu^15, Orn^21, Nle^27, Asp^28, Agm^29]hGHRH(1-29)NH2 (peptide)
peptide: [NMeY][dA]DAI[Phe(F5)]TNSYR[Orn]VL[Abu]QLSAR[Orn]LLQDI[Nle]D[Agmatine]
B2: P-27414 [N-Me-Tyr^1, D-Ala^2, Fpa5^6, Orn^12, Abu^15, Orn^21, Nle^27, Gab^30]hGHRH(1-30)NH-CH3 (peptide)
peptide: YADAIFTNSYRKVLGQLSARKLLQDIMSRQ
modifications: N-Me-Tyr^1; D-Ala^2; Fpa5^6; Orn^12; Abu^15; Orn^21; Nle^27; Gab^30 (in place of Gln^30); C-terminal -NH-CH3
B3: P-27409 [N-Me-Tyr^1, D-Ala^2, Orn^12, Abu^15, Orn^21, Nle^27, Asp^28]hGHRH(1-29)NH-CH3 (peptide)
peptide: [NMeY][dA]DAIFTNSYR[Orn]VL[Abu]QLSAR[Orn]LLQDI[Nle]DR-NHMe
B4: P-27404 [N-Me-Tyr^1, D-Ala^2, Fpa5^6, Orn^12, Abu^15, Orn^21, Nle^27, Asp^28]hGHRH(1-29)NH-CH3 (peptide)
peptide: [NMeY][dA]DAI[Phe(F5)]TNSYR[Orn]VL[Abu]QLSAR[Orn]LLQDI[Nle]DR-NHMe
B5: P-27406 [N-Me-Tyr^1, Gln^8, Orn^12, Abu^15, Orn^21, Nle^27, Asp^28]hGHRH(1-29)NH-CH3 (peptide)
peptide: [NMeY]ADAIFTQSYR[Orn]VL[Abu]QLSAR[Orn]LLQDI[Nle]DR-NHMe
B6: P-20357 [Dat^1, D-Ala^2, N-Me-Ala^8, Orn^12, Abu^15, Orn^21, Nle^27, Asp^28, Agm^29]hGHRH(1-29)NH2 (peptide)
peptide: [Desaminotyrosyl][dA]DAIFT[NMeA]SYR[Orn]VL[Abu]QLSAR[Orn]LLQDI[Nle]D[Agmatine]
SMILES: CCCC[C@H](NC(=O)[C@@H](NC(=O)[C@H](CC(=O)O)NC(=O)[C@H](CCC(N)=O)NC(=O)[C@H](CC(C)C)NC(=O)[C@H](CC(C)C)NC(=O)[C@H](CCCN)NC(=O)[C@H](CCCNC(=N)N)NC(=O)[C@H](C)NC(=O)[C@H](CO)NC(=O)[C@H](CC(C)C)NC(=O)[C@H](CCC(N)=O)NC(=O)[C@H](CC)NC(=O)[C@H](CC(C)C)NC(=O)[C@@H](NC(=O)[C@H](CCCN)NC(=O)[C@H](CCCNC(=N)N)NC(=O)[C@H](Cc1ccc(O)cc1)NC(=O)[C@H](CO)NC(=O)[C@H](C)N(C)C(=O)[C@@H](NC(=O)[C@H](Cc1ccccc1)NC(=O)[C@@H](NC(=O)[C@H](C)NC(=O)[C@H](CC(=O)O)NC(=O)[C@@H](C)NC(=O)CCc1ccc(O)cc1)[C@@H](C)CC)[C@@H](C)O)C(C)C)[C@@H](C)CC)C(=O)N[C@@H](CC(=O)O)C(=O)NCCCCNC(=N)N
B7: P-27410 [N-Me-Tyr^1, D-Ala^2, Thr^8, Orn^12, Abu^15, Orn^21, Nle^27, Asp^28]hGHRH(1-29)NH-CH3 (peptide)
peptide: [NMeY][dA]DAIFTTSYR[Orn]VL[Abu]QLSAR[Orn]LLQDI[Nle]DR-NHMe
B8: P-27413 [Dat^1, Gln^8, His^11, Orn^12, Abu^15, His^20, Orn^21, Nle^27, Asp^28]hGHRH(1-29)NH-CH3 (peptide)
peptide: [Desaminotyrosyl]ADAIFTQSYH[Orn]VL[Abu]QLSAH[Orn]LLQDI[Nle]DR-NHMe
SMILES: CCCC[C@H](NC(=O)[C@@H](NC(=O)[C@H](CC(=O)O)NC(=O)[C@H](CCC(N)=O)NC(=O)[C@H](CC(C)C)NC(=O)[C@H](CC(C)C)NC(=O)[C@H](CCCN)NC(=O)[C@H](Cc1c[nH]cn1)NC(=O)[C@H](C)NC(=O)[C@H](CO)NC(=O)[C@H](CC(C)C)NC(=O)[C@H](CCC(N)=O)NC(=O)[C@H](CC)NC(=O)[C@H](CC(C)C)NC(=O)[C@@H](NC(=O)[C@H](CCCN)NC(=O)[C@H](Cc1c[nH]cn1)NC(=O)[C@H](Cc1ccc(O)cc1)NC(=O)[C@H](CO)NC(=O)[C@H](CCC(N)=O)NC(=O)[C@@H](NC(=O)[C@H](Cc1ccccc1)NC(=O)[C@@H](NC(=O)[C@H](C)NC(=O)[C@H](CC(=O)O)NC(=O)[C@H](C)NC(=O)CCc1ccc(O)cc1)[C@@H](C)CC)[C@@H](C)O)C(C)C)[C@@H](C)CC)C(=O)N[C@@H](CC(=O)O)C(=O)N[C@@H](CCCNC(=N)N)C(=O)NC
B9: P-25501 [N-Me-Tyr^1, D-Ala^2, Orn^12, Abu^15, Orn^21, Nle^27, Gab^30]hGHRH(1-30)NH2 (peptide)
peptide: B2 peptide
modifications: N-Me-Tyr^1; D-Ala^2; Orn^12; Abu^15; Orn^21; Nle^27; Gab^30 (in place of Gln^30); C-terminal -NH2

Target: T1, GHRH receptor of human pituitary …
Assay: competition vs 125I-JV-1-42, human pituitary membranes;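 note: pituitaries used were normal human glands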
Text: Normal human pituitaries were purchased from the National Hormone and Peptide Program (A.F. Parlow, Los Angeles, County Harbor-UCLA Medical Center, Torrance, Calif.).

Row | IC50 [nM] | relative affinity (binding potency) vs JI-38 [vs JI-38=1] | Binder
1 | 3.05 | 1.43 | B1
2 | 1.56 | 2.79 | B2
3 | 1.06 | 4.1 | B3
4 | 0.87 | 5 | B4
5 | 0.3 | 14.5 | B5
6 | 0.86 | 5.06 | B6
7 | 0.83 | 5.24 | B7
8 | 2.45 | 1.78 | B8
9 | 1.07 | 4.07 | B9

Target: T1, GHRH receptor of human pituitary …
Assay: competition vs 125I-[His1,Nle27]hGHRH(1-32)NH2, human pituitary membranes
Text: Normal human pituitary was purchased from the National Hormone and Peptide Program (UCLA Medical Center, Torrance, Calif.).

Row | IC50 [nM] | relative affinity (binding potency) compared to JI-38 [vs JI-38=1] | relative affinity (binding potency) compared to hGHRH(1-29) | Binder
10 | 1.01 | 2.71 | 7.57 vs hGHRH(1-29)NH2=1 | B3
11 |  | 2.45 | 6.83 vs hGHRH(1-29)NH2=1 | B4
12 |  | 2.95 | 8.22 vs hGHRH(1-29)NH2=1 | B5
13 | 1.28 | 2.14 | 5.98 vs hGHRH(1-29)NH2=1 | B7
